# Data as given in IntAct's records for PubMed 20531387.
# B1: Centrosomal P4.1-associated protein (Homo sapiens), Q9HC77 (parent)
# chain: MFLMPTSSELNSGQNFLTQWMTNPSRAGVILNRGFPILEADKEKRAAVDISTSFPIKGTHFSDSFSFINEEDSLLEEQKLESNNPYKPQSDKSETHTAFPCIKKGPQVAACHSAPGHQEENKNDFIPDLASEFKEGAYKDPLFKKLEQLKEVQQKKQEQLKRQQLEQLQRLMEEQEKLLTMVSGQCTLPGLSLLPDDQSQKHRSPGNTTTGERATCCFPSYVYPDPTQEETYPSNILSHEQSNFCRTAHGDFVLTSKRASPNLFSEAQYQEAPVEKNNLKEENRNHPTGESILCWEKVTEQIQEANDKNLQKHDDSSEVANIEERPIKAAIGERKQTFEDYLEEQIQLEEQELKQKQLKEAEGPLPIKAKPKQPFLKRGEGLARFTNAKSKFQKGKESKLVTNQSTSEDQPLFKMDRQQLQRKTALKNKELCADNPILKKDSKARTKSGSVTLSQKPKMLKCSNRKSLSPSGLKIQTGKKCDGQFRDQIKFENKVTSNNKENVTECPKPCDTGCTGWNKTQGKDRLPLSTGPASRLAAKSPIRETMKESESSLDVSLQKKLETWEREKEKENLELDEFLFLEQAADEISFSSNSSFVLKILERDQQICKGHRMSSTPVKAVPQKTNPADPISHCNRSEDLDHTAREKESECEVAPKQLHSLSSADELREQPCKIRKAVQKSTSENQTEWNARDDEGVPNSDSSTDSEEQLDVTIKPSTEDRERGISSREDSPQVCDDKGPFKDTRTQEDKRRDVDLDLSDKDYSSDESIMESIKHKVSEPSRSSSLSLSKMDFDDERTWTDLEENLCNHDVVLGNESTYGTPQTCYPNNEIGILDKTIKRKIAPVKRGEDLSKSRRSRSPPTSELMMKFFPSLKPKPKSDSHLGNELKLNISQDQPPGDNARSQVLREKIIELETEIEKFKAENASLAKLRIERESALEKLRKEIADFEQQKAKELARIEEFKKEEMRKLQKERKVFEKYTTAARTFPDKKEREEIQTLKQQIADLREDLKRKETKWSSTHSRLRSQIQMLVRENTDLREEIKVMERFRLDAWKRAEAIESSLEVEKKDKLANTSVRFQNSQISSGTQVEKYKKNYLPMQGNPPRRSKSAPPRDLGNLDKGQAASPREPLEPLNFPDPEYKEEEEDQDIQGEISHPDGKVEKVYKNGCRVILFPNGTRKEVSADGKTITVTFFNGDVKQVMPDQRVIYYYAAAQTTHTTYPEGLEVLHFSSGQIEKHYPDGRKEITFPDQTVKNLFPDGQEESIFPDGTIVRVQRDGNKLIEFNNGQRELHTAQFKRREYPDGTVKTVYANGHQETKYRSGRIRVKDKEGNVLMDTEL
# partner: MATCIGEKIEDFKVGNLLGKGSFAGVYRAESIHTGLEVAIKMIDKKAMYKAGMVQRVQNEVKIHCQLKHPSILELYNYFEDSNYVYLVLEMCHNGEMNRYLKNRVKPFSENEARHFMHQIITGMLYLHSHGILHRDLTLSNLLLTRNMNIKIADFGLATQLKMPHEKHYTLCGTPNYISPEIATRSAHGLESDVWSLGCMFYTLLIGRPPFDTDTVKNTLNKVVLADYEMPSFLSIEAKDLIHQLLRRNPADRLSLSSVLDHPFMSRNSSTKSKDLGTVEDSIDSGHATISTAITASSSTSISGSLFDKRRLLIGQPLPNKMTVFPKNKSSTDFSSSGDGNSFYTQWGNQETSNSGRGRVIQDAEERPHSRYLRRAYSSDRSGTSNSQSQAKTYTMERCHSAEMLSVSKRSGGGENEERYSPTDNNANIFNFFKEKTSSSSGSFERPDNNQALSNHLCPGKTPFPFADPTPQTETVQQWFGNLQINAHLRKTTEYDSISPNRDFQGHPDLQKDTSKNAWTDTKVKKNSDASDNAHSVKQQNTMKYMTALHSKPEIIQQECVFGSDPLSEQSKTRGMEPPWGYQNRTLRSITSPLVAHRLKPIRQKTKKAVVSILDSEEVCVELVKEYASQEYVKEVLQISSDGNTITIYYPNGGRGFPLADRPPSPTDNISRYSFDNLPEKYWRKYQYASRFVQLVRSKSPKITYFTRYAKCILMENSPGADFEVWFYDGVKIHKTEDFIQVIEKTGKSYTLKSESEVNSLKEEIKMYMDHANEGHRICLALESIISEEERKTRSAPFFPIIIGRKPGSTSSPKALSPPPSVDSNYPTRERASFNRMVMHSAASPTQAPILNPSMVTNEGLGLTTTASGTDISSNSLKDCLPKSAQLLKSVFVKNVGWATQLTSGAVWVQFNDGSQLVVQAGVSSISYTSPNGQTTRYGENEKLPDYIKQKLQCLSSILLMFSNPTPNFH
# B2: Centrosomal P4.1-associated protein (Homo sapiens), Q9HC77 (parent)
# chain: B1 chain
# Variants of: B1
# Conditions: with plk4_human PLK4, O00444
row,Variant,effect of a mutation on the interaction
1,S595A,disrupting interaction
2,S589A,disrupting interaction

# Variants of: B2
# Conditions: with plk2_human PLK2, Q9NYY3
# Sequence of plk2_human PLK2, Q9NYY3 (Q9NYY3 whole entry, looked up): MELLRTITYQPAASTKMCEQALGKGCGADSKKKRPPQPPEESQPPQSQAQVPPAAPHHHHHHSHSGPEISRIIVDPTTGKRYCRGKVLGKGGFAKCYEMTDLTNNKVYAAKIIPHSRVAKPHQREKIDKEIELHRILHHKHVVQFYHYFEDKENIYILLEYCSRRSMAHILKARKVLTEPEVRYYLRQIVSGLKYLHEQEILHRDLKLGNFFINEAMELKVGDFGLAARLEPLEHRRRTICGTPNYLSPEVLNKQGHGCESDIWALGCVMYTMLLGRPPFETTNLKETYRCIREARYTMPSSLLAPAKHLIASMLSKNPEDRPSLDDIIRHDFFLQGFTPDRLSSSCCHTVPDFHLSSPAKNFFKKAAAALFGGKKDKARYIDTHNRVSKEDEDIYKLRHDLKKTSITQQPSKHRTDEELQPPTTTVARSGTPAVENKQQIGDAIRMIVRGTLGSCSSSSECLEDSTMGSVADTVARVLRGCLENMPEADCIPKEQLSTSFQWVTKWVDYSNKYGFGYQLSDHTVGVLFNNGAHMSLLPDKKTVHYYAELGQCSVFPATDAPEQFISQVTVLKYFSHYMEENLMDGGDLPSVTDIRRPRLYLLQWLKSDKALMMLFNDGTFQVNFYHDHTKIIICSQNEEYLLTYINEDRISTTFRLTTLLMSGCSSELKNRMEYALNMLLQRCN
row,Variant,effect of a mutation on the interaction
1,S589A,decreasing interaction

# Variants of: B2
# Conditions: with plk2_human PLK2, Q9NYY3
# Remark: another data set of the same source
row,Variant,effect of a mutation on the interaction
1,S589A,disrupting interaction
2,S595A,disrupting interaction

# Variants of: B2
# Conditions: with plk2_human PLK2, Q9NYY3
# Remark: another data set of the same source
row,Variant,effect of a mutation on the interaction
1,S595A,decreasing interaction
